Patent US20050192282A1, “Chemokine inhibiting piperazine derivatives and their use to treat multiple myeloma” (Schering Aktiengesellschaft, priority 2004, published 2005)
“Also recorded” adds a separate entry of the source.

T1: Human CCR1 (Homo sapiens, UniProt P32246)
T1 sequence (P32246 1-355): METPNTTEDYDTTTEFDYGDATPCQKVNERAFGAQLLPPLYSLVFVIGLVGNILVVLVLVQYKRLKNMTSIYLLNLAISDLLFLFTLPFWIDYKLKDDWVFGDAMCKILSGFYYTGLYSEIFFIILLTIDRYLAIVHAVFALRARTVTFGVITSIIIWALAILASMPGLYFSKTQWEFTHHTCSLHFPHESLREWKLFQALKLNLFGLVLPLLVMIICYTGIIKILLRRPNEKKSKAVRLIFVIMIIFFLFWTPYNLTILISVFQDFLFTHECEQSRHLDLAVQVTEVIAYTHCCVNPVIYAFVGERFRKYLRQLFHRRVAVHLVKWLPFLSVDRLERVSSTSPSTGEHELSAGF


Legend:
Human CCR1 = molecular target: T1, Human CCR1; conditions: cited from earlier work
[1] = test system: β1 integrin mRNA expression in MM.1S human Myeloma cells; assay: RT-PCR analysis of β1 integrin mRNA expression in MM.1S myeloma cells cocultured with ST2 stromal cells; assay type: cell-based; conditions: MM.1S cocultured with ST2; treated with 1 ng/ml of rhMIP-1a, 12 hours

Molecule | ability to signal through human CCR1 (Human CCR1) | β1 integrin mRNA expression levels [1]
MCP-1: human chemokine binding CCR1 with low affinity | neither ligand is able to signal | –
MIP-1β: human chemokine binding CCR1 with low affinity (protein, UniProt P13236 24-92, looked up) C-C motif chemokine 4: APMGSDPPTACCFSYTARKLPRNFVVDYYETSSLCSQPAVVFQTKRSKQVCADPSESWVQEYVYDLELN | neither ligand is able to signal | –
MIP-1α: human CC chemokine, ligand for CCR1 and CCR5; recombinant form used as stimulus (protein, UniProt P10147 24-92, looked up) C-C motif chemokine 3: SLAADTPTACCFSYTSRQIPQNFIADYFETSSQCSKPGVIFLTKRSRQVCADPSEEWVQKYVSDLELSA | – | significantly increased; also recorded: significantly enhanced
